# Measurements from the nanobody polyreactivity screen of Harvey et al. (2022).
# Assay: yeast display, Sf9 membrane polyspecificity reagent, FACS + sequencing; frameworks hold sequencing errors
# Method in brief: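 Nanobodies came from a synthetic yeast display library in Saccharomyces cerevisiae BJ5465, induced with galactose for 36–48 hours and stained for 1 hour at 4 °C with 10% biotinylated, detergent-solubilized Sf9 membrane reagent. Cells were enriched on streptavidin microbeads and then FACS-sorted, with low and high (top ~1%) gates set on anti-HA fluorescence for expression and streptavidin fluorescence for reagent binding. Each polyreactivity label reflects the gate a clone came from. Genes were amplified by colony PCR, sequenced by MiSeq 2 × 250 and filtered by CDR length.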
row,Sequence,polyreactivity (PSR sort gate)
1,QVQLVESGGGLVQAGGSLLLSCAASVRIFQGYAMGWYRQEPGKERELVAAISSGGRTYYADSVKGRFTISRDNAKNTVYLQMNSLKPEDTAVYYCAARSPKAHGLQRFDYWGQGTQVTVSS,high polyreactivity
2,QVQLVESGGGLVQAGGSLLLSCPASGRIFTWYAMGWYRQAPGKERELVAAINYNGDDTYYADSVKGRFTISRDNAKNTVYLQMNSLKPEDTAVYYCAAEGSRPPYDYWGQGTQVTVSS,high polyreactivity
3,QVQLVESGGGLVQAGGSLLLSGAPSGRTFPYYAMGWYRQAPGKERELVARISSDGSTTYADSVKGRITISRDHAKNTVYLQMNSLKPEDTAVYYSAADVTFAGLKYIFDYWGPGTQVTVSS,low polyreactivity
4,QVQLVESGGGLVQAGGSLLVSCAASGRIFSYNAMGWYRQAPGKERELVAAITRSGSTNYADSVKGRFTISRDNANNTVYLQMNSLKPEDTAVYYCAAVVYRPYRWQYDYWGQGTQVTVSS,high polyreactivity
5,QVQLVESGGGLVQAGGSLPLICADSGFISAYYAMGWYRQAPGKEREFVAGISKSGSSTSYADSVKGRFTISRDNAKKTVYLQMNSLKPEDTAVYYCAKYTPYYSELGYWGQGTQVTVSS,high polyreactivity
6,QVQLVESGGGLVQAGGSLPLRCAASGLILEYYAMGWYRQAPGKERELVAAITRGGSTYYADSVKWRFTISRDNAKNTVYLQMNSLKPEDTAVYYCAADRYYYEYDYWGQGTQVNVSS,low polyreactivity
7,QVQLVESGGGLVQAGGSLPLSCAASGLTIFVNAMGWYRQAPGKERELVATISGGGSTYYADSVKGRFTISRDNAKNTVYLQMNSLKREDTAVYYCNAADVGGPWWYPYTYNYWGQGTQVTVSS,low polyreactivity
8,QVQLVESGGGLVQAGGSLPLSCAASGRTFHYNAMGWYRQAPGKERDLFAAISRDGGSTDYADSVKGRFTISSDNAKNTVYLQMNSLKPEDTAVYYCAAPIGKQEFSRDYDYWGQGTQVTVSS,low polyreactivity
9,QVQLVESGGGLVQAGGSLPLSCAASGRTFYYYAMGWYRQAPGKERELVAAISWSGGRTYYADSVKGSFTISRDNAKNTVYLQMNSLKPADTAVYYCNAEPPRGYTVSSGGEMDYWGQCTQVTVSS,low polyreactivity
10,QVQLVESGGGLVQAGGSLPLSCAASGSIFDDYAMGWYRQAPGKEWELVAAITSGGSTYYADSVKGRFTISRDNAKYTVYLQMNSLKPEDTAVYYCAAPENKYDEYDYWGQGTQVTVSS,low polyreactivity
11,QVQLVESGGGLVQAGGSLPLSCAASGSIFLYNAMGWYRQAPGKERELVAGITFIGGSTYYADSVKGRFTISRDNAKNSVYLQMNSLKPEDTAVYYCNRLGVYWVGTEFDYWGQGTQVTLSS,low polyreactivity
12,QVQLVESGGGLVQAGGSLPLSCAASGSISGLNARGWSRQAPGTEREMVAAISRSGTRRYYADSVKGRFTISRDNEKNTVYLQMNSLKPEDSAVYYCAVQYAVAVGRYNYWGQGTQVTVSS,high polyreactivity
13,QVQLVESGGGLVQAGGSLPLSCAASGSTFNGYAMGWYIQAPGKEWELVAVISSGGTTNYADSVKGRFTISRDNAKNTVYLQMNSLKPEDTAVYYCAADIGHRYHYRFDYWGQGTQVTVSS,low polyreactivity
14,QVQLVESGGGLVQAGGSLPLSCAASGYTFDANAMGWYRQAPGKERELVASISSISDSTDYADSVKGRFTISRDNAKNTVYLQMNSLKPEDTAVYYCARSDVKPGRQERDYWGQGTQVTVSS,low polyreactivity
15,QVQLVESGGGLVQAGGSLPLSCYDSGITIPDYYMGCFRQSPGKERELVAAITYRSGSTYNADSVKGRFTISRDNAKNTVYLQMNSLKQEDTAVFYCAAKRFLLRYYTKQYNYWGLGTQVTVSS,high polyreactivity
16,QVQLVESGGGLVQAGGSLRCSCAASGRTFGTYAMGWYRQAPGKERELVAAISTRDGSTYYADSVKGRYTISRDTAKNTVYLQMNSLKPEDTAVYYCNAVVRYYDWGYWDYDYWGQGTQVTVSS,low polyreactivity
17,QVQLVESGGGLVQAGGSLRESCAASGSISAEYVMGWYRKAPGKERELVAAISVSAGTTYYADSVKGRFTISRDNAKTTVYLHMNSLKPEDTAVYYCAATDSYYWLYYYGYSPCNDYWGQGTQVTVSS,low polyreactivity
18,QVQLVESGGGLVQAGGSLRFSCAASGFIFSNYAMGWYRQAPGKERELVAAITSGGSTNYADSVKGRFTISRDNAKNTVYLQMNSLKPEDTAVYYCAAERGDTAYRKYDYWGQGTQVTVSS,low polyreactivity
19,QVQLVESGGGLVQAGGSLRFSCAASGFTFPYYAMGWYRQAPGKERELVAAITGRGGSSYYADSVKGRFTISRDNAKNTVYLQMNSLKPEDTAVYYCAARRSSRSKRLNYWGQGTQVTVSS,high polyreactivity
20,QVQLVESGGGLVQAGGSLRFSCAASGFTFSDYAMGWYRQAPGKEREFVAAITRRGGSTYYADSVKGRFTISRDNAKNTVYLQMNSLKPEDTAVYYCAKRGLRSYSFPLWQGYDYWGQGTQVTVSS,high polyreactivity
21,QVQLVESGGGLVQAGGSLRFSCAASGFTFVINDMGWYRQAPGKERELVADITSGGDTYYADSVKGRFTISRDNAKNTVYLQMNSLKPEDTAVYYCAADIYPDWIYLLYGYWGQGTQVTVSS,low polyreactivity
22,QVQLVESGGGLVQAGGSLRFSCAASGGIYYLYAMGWYRQAPGKEREFVAAISSSGGSTNYADSVMGRFTISRDNAKNTVYLQMNSLKRDDSAVYYCNAVDWKQEVGGWVEYDYWGQGTQVNVSS,high polyreactivity

row,Sequence,polyreactivity (PSR sort gate)
1,QVQLVESGGGLVQAGGSLRFSCAASGHIFFYYTMGWYRQAPGKERELVAGITQSGGNTYYADSVKGRFTISRDNAKNTVYLQMNSLKPEDTAVYYCAARIRGTWKYGYWGQGTQVTVSS,low polyreactivity
2,QVQLVESGGGLVQAGGSLRFSCAASGITFSSYGMGWYRQAPGKERELVAAISWDSGSTYYADSVKGRFTISRDNAKNTVYLQMNSLKPEQTAVYYCNAVYYSVYRFDYWGQGTQVTVSS,high polyreactivity
3,QVQLVESGGGLVQAGGSLRFSCAASGRIFRFYAMGWYRQAPGKERELVAAISSRGGSTYYADSVKGRFTISRDNAKNTVYLQMNSLKPEDTAVYYCNAYGSTSQLDYWGQGTQVTVSS,high polyreactivity
4,QVQLVESGGGLVQAGGSLRFSCAASGRIFRYNAMGWYRQAPGKARELVAAISRSGGSTYYADSVKGRFTISRDNAKNTVYLQMISLKPEDTAVYYCAVGSPYGGRAPCVRGGDYWGQGTQVTVSS,high polyreactivity
5,QVQLVESGGGLVQAGGSLRFSCAASGRTFNQNAMGWYRQAPGKERELVAAITSRGGSTFYADSVKGRFTISRDNAKNTVYLQMNSLKPEDTAVYYCNAKSWRYYTMGYWGQGTQVTVSS,high polyreactivity
6,QVQLVESGGGLVQAGGSLRFSCAASGRTFNWYAMGWYRQAPGKERELVAAISSRGGSTYADSVKGRFTISRDNAKNTVYLQMNSLKPEDTAVYYCAARHHGTKYDYWGQGTQVTVSS,low polyreactivity
7,QVQLVESGGGLVQAGGSLRFSCAASGRTIYYNTMGWYRQAPGKERELVAAINYGGSTYYADSVKGRFTISRDNAKNTVYLQMHSLKPEDTAVYYCNAVTRPKTWRYDYWGQGPQVTVSS,high polyreactivity
8,QVQLVESGGGLVQAGGSLRFSCAASGSIFDYNAMGWYRQAPGKERELVAAIDWSGSSTYYADSVKGRFTISRDNAKNTVYLQMNSLKPEDTAVYYCNALAYYGMDYWGQGTQVTVSS,low polyreactivity
9,QVQLVESGGGLVQAGGSLRFSCAASGSIFWYNAMGWYRQAPGKERELVARISSSGDSTYYADSVKGRFTISRDNAKNTVYLQMNSLKPEDTAVYYCNVDYWSISESSWGYYTSYDYWGQGTQVTVSS,high polyreactivity
10,QVQLVESGGGLVQAGGSLRFSCAASGSTFHRYVMGWYRQAPGKERELVADINSTGGSTYYADSVKGRFTISRDNAKNTVYLQMNSLKPEDTAVYYCARVTRRGPGFSTLYSRYDYWGQGTQVNVSS,low polyreactivity
11,QVQLVESGGGLVQAGGSLRFSCAASGSTFRAYAMGWYRQAPGKEREFVASISWSGGRTYYADSVKGRFTISRDNAKNTVYLQMNSLIPEDTAVYYCAADYDVLDYGNLRYGFDYWGQGTKVTVSS,low polyreactivity
12,QVQLVESGGGLVQAGGSLRFSCAASGSTFVYYAMGWYRQAPGKERELVAAITFGGGSTYYADSVKGRFTISRDNAKNTVYLQMNSLKPEDTAVYYCAVYWDDGSAYPPLIVGYDYWGQGTQVTVSS,low polyreactivity
13,QVQLVESGGGLVQAGGSLRFSCAASRLTFYWYAMGWYRQPPGKERELVAGISWSGGSTYADSVKGRFTITRDNAKNTVYLQLNSLKPEDTAVYYCAADTYYYRGQSYYYWGQGTEVTVSS,high polyreactivity
14,QVQLVESGGGLVQAGGSLRFSCAPSGRILYKYAMGCYRQAPGKERELVAAISWRGTTTYYADSVKGRFTISRDNAKNTVYLQMNSLKPEDTAVYYCNARVRVRLGRNWSSYYYWGQGTQVTVSS,high polyreactivity
15,QVQLVESGGGLVQAGGSLRFSCDASGRTFRYYAMGWYRQAPGKERELVAAIRSGGTTYYADSVKGRFTISRDNAKNTVYFQMNSLKPEDTAVYYCAAKVPWKYSRVYRVGFDYWGQGTQVTVSS,high polyreactivity
16,QVQLVESGGGLVQAGGSLRFSCSASGRTFLIYAMGWYRQAPGKARELVAAINFSGGNTYYADSVKGRFTISRDNAKNTVYLQMNSLKPEDTAVYYCAAGVYSFRYDYWGQGTQVTVSS,low polyreactivity
17,QVQLVESGGGLVQAGGSLRIICAASGRTLSGYAMGWYRQAPGKERELVAAISSDGRTYYADSVKGRFTISRDNAKNTVYLQMNSLKPEDTAVYYCAARANPYVLKYYYWGQGTQVTVSS,high polyreactivity
18,QVQLVESGGGLVQAGGSLRISCAASGFIFGKNDMGWYRQATWKERELVAAITIGGSTNYADSVKGRFTFSRDNAKNTVYLQMNSLKPEDTAVYYCNADSYHYGTSLYNYWGQGTQLTVSS,low polyreactivity
19,QVQLVESGGGLVQAGGSLRISCAASGFIFRLYAMGWYRQAPGKERELVAAIRWSGGSTTYADSVKGRFTISRDNAKNTVYLQMNSLNPEDTAVYYCAATAGRRSVTYGYWGQGTQVTVSS,high polyreactivity
20,QVQLVESGGGLVQAGGSLRISCAASGFIFRSYAMGWDRKAPGKERELVAAITRSGGSTYYADSVKGRFTISRDNAKTTVYLQMNSLKPEDTAVYYCATRRYWYYILDYGGQGTQVTVSS,high polyreactivity
21,QVQLVESGGGLVQAGGSLRISCAASGFIFTYYAMGWYRQAPGKERELVAAITKSGTSTYYADSVKGRFTISRDNAKNTVYLQMNSLKPEDTAVYYCNAVLWWDWEYDFYYWGQGTQVTVSS,high polyreactivity
